Test results: patent US6511832

What was measured:
[1] = test system: LEF-4 (Autographa californica nuclear polyhedrosis virus); conditions: 5'-triphosphate; RNA 5'-triphosphatase turnover, 0.3 mM MnCl2, 30 C
[2] = molecular target: baculovirus RNA polymerase complex (LEF-8/LEF-9/LEF-4/p47) (Autographa californica nuclear polyhedrosis virus) (UniProt P41452+P41465+P41477+P34051); conditions: 5'-triphosphate; RNA 5'-triphosphatase turnover, 0.3 mM MnCl2, 30 C
[3] = test system: LEF-4 E9/11A E9A,E11A (Autographa californica nuclear polyhedrosis virus); conditions: 5'-triphosphate; RNA triphosphatase reduced 100-fold
[4] = test system: LEF-4 R51A R51A (Autographa californica nuclear polyhedrosis virus); conditions: 5'-triphosphate; RNA triphosphatase
[5] = test system: LEF-4 wild type (E. coli) (Autographa californica nuclear polyhedrosis virus); conditions: 5'-triphosphate; RNA triphosphatase, 1 uM RNA
[6] = test system: LEF-4 L105F L105F (Autographa californica nuclear polyhedrosis virus); conditions: 5'-triphosphate; RNA triphosphatase at nonpermissive temperature (33 C); equal to wild type at 25 C

UniProt P41452, sequence (P41452 whole entry, chain 1 of 4): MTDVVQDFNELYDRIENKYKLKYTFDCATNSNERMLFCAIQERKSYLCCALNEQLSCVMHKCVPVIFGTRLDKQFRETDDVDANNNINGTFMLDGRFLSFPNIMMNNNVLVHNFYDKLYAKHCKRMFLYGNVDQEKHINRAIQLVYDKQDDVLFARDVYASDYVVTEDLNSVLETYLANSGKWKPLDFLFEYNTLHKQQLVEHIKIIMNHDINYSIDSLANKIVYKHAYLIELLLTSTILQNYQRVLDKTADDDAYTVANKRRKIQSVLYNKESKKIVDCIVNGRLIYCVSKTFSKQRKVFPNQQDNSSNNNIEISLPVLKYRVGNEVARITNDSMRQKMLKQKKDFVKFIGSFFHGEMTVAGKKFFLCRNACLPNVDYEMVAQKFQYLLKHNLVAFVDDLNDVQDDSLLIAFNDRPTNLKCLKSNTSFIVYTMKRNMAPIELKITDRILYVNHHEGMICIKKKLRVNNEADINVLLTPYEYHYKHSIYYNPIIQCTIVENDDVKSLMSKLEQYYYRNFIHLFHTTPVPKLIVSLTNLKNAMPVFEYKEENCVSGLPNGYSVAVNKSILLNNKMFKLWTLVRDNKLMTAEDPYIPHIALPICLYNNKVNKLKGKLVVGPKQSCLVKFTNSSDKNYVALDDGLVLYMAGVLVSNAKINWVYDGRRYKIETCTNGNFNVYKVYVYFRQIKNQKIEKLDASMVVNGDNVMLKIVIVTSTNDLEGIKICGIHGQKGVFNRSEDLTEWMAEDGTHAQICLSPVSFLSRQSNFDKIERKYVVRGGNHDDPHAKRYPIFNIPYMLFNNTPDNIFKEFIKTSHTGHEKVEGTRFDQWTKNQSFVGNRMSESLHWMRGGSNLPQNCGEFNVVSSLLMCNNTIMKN
UniProt P41452, sequence (P41465 whole entry, chain 2 of 4): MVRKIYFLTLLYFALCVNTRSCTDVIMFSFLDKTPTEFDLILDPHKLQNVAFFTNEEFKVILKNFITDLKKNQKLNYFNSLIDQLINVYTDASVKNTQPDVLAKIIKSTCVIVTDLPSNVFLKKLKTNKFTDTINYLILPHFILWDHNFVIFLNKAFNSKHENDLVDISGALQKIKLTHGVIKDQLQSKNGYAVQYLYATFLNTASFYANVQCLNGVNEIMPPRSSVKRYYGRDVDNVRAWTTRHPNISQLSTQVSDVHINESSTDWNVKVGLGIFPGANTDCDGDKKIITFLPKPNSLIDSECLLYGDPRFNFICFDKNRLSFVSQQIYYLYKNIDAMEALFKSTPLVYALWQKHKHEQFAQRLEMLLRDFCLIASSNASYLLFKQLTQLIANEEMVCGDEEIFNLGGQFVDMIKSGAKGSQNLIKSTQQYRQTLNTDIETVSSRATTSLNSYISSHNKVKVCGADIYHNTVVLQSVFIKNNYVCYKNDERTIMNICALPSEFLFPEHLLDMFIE
UniProt P41452, sequence (P41477 whole entry, chain 3 of 4): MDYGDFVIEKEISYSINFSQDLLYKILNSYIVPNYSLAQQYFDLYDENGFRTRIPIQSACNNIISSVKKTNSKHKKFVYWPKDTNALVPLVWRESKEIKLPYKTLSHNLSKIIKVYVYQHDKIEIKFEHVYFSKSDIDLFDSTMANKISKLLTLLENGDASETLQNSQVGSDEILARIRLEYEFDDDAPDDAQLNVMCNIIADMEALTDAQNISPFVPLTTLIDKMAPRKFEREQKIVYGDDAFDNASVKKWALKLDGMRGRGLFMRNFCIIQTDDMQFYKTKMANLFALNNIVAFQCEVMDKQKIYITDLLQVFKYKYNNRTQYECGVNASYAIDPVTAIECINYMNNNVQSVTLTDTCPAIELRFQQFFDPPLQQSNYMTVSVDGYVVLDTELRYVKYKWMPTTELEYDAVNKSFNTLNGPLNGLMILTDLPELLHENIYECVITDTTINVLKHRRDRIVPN
UniProt P41452, sequence (P34051 whole entry, chain 4 of 4): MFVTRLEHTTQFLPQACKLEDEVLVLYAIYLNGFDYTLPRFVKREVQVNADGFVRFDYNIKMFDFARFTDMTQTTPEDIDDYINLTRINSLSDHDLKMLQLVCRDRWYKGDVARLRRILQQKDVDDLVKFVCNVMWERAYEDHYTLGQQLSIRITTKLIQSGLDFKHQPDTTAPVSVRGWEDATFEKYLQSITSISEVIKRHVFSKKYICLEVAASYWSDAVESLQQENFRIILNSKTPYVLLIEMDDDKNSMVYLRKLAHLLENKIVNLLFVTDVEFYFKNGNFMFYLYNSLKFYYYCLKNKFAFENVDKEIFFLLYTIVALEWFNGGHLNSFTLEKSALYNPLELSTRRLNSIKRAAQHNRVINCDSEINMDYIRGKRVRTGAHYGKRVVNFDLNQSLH

gamma-32P 5'-triphosphate 150-nt T3 transcript of pBluescript KS
activity [1]: 0.31 fmol/s/fmol
activity [2]: 0.16 fmol/s/fmol
binding signal (fraction of wild type) [3]: 0.01
RNA triphosphatase activity (% of wild type) [4]: 2.5
activity (pmol Pi/pmol per 15 min) [5]: 210
binding signal (% of wild type) [6]: 74
